We go through 4 molecules from PMC7647994 (2020).

Where two headings read alike, the source gives them in different places.

Test [1] has as its target H10-tagged zinc-binding domain of human CLPX (human). In words: SEC; Superose 12; H10PDIP38, ZBD, or both together; elution profiles from quantified protein bands. (SEC sorts molecules by how far they enter the pores of the column.)
For test [2] the target is unchanged. In words: pull-down; series of pull-down experiments to estimate the affinity of PDIP38 for the ZBD (Supplementary Fig. 3).
Test [3] has as its target T1, H10-tagged zinc-binding domain of human CLPX (human).
T1 chain: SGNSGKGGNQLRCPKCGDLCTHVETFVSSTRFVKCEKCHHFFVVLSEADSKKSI

As usually defined, the stoichiometry N is a count of units in the complex or per binding partner. In test [1], “H10-tagged zinc-binding domain of human CLPX (domain or fragment)” came in with a stoichiometry N of 2.

B1: untagged PDIP38 (natural protein)
chain: SSRNRPEGKVLETVGVFEVPKQNGKYETGQLFLHSIFGYRGVVLFPWQARLYDRDVASAAPEKAENPAGHGSKEVKGKTHTYYQVLIDARDCPHISQRSQTEAVTFLANHDDSRALYAIPGLDYVSHEDILPYTSTDQVPIQHELFERFLLYDQTKAPPFVARETLRAWQEKNHPWLELSDVHRETTENIRVTVIPFYMGMREAQNSHVYWWRYCIRLENLDSDVVQLRERHWRIFSLSGTLETVRGRGVVGREPVLSKEQPAFQYSSHVSLQASSGHMWGTFRFERPDGSHFDVRIPPFSLESNKDEKTPPSGLHW
As usually defined, the Kd is a measure of binding affinity in units of concentration. B1: in test [2], the Kd was 1.8 µM.

B2: GST-PDIP38 fusion protein (natural protein)
chain: B1 chain
Consider B2, for which the dissociation constant (Kd) in test [3] is around 1.8 µM.

B3: His10-tagged recombinant PDIP38 (H10PDIP38) (natural protein)
chain: B1 chain
B3 yielded a stoichiometry N (PDIP38 per ZBD2) in test [1] of 1.
